Data from patent US20130109737A1 (published 2013).

B3: Med23 (other, mouse (murine ES cells), UniProt Q80YQ2 1-1367, looked up)
chain: METQLQSIFEEVVKTEIIEEAFPGMFMDTPEDEKTKLISCLAAFRQFWSGLSQESHEQCVQWIVKFIHGQHSPKRISFLYDCLAMAVETGLLPPRMVCESLINSDSLEWERTQLWALTFKLVRKIIGGVDYKGVRDLLKAILEKILTIPNTVSSAVVQQLLAAREVIAYILERNACLLPAYFAVTEIRKLYPEGKLPHWLLGNLVSDFVDTFRPTARINSICGRCSLLPVVNNSGAICNSWKLDPATLRFPLKGLLPYDKDLFEPQTALLRYVLEQPYSRDMVCNMLGLNKQHKQRCPVLEDQLVDLVVYAMERSETEEKFDDGGTSQLLWQHLSSQLIFFVLFQFASFPHMVLSLHQKLAGRGLIKGRDHLMWVLLQFISGSIQKNALADFLPVMKLFDLLYPEKECIPVPDINKPQSTHAFAMTCIWIHLNRKAQNGDSTLQIPIPHSLKLHHEFLQQSLRNKSLQMNDYKIALLCNAYSTNSECFTLPMGALVETIYGNGIMRVPLPGTSCLASASVTPLPMNLLDSLTVHAKMSLIHSIATRVIKLAHTKSSVALAPALVETYSRLLVYMEIESLGIKGFISQLLPTVFKSHAWGILHTLLEMFSHRMHHIQPHYRVQLLSHLHTLAAVAQTNQNQLHLCVESTALRLITALGSSEVQPQFTRFLNDPKTVLSAESEELNRALILTLARATHVTDFFTGSDSIQGTWCKDILQTIMNFTPHNWASHTLSCFPAPLQAFFKQNNVPQESRFNLKKNVEEEYRKWKSMTDENEIITQFSVQGFPPLFLCLLWKMLLETDHISQIGYKVLERIGARALVAHVRTFADFLVYEFSTSAGGQQLNKCIEILNDMVWKYNIVTLDRLILCLAMRSHEGNEAQVCYFIIQLLLLKPNDFRNRVSDFVKENSPEHWLQSDWHTKHMSYHKKYPEKLYFEGLAEQVDPPVPIQSPYLPIYFGNVCLRFLPVFDIVIHRFLELLPVSKSLETLLDHLGGLYKFHDRPVTYLYNTLHYYEMCLRNRDHLKRKLVHAIIGSLKDNRPQGWCLSDTYLKHAMNAREDNPWVPEDSYYCKLIGRLVDTMAGKSPGPFPNCDWRFNEFPNPAAHALHVTCVELMALAVPGKDVGNALLNVVLKSQPLVPRENITAWMNAIGLIITALPEPYWIVLHDRIVNVISSSSLTSETEWVGYPFRLFDFTACHQSYSEMSCSYTLALAHAVWHHSSIGQLSLIPKFLTEALLPVVKTEFQLLYVYHLVGPFLQRFQQERTRCMIEIGVAFYDMLLNVDQCSTHLNYMDPICDFLYHMKYMFTGDSVKEQVEKIICNLKPALKLRLRFITHISKMEPAVPPQALNSGSPAPQSNQVPASLPVTQ
notes: Endogenous protein in crosslinked chromatin or nuclear extract of V6.5 murine ES cells; also called mediator subunit Med23

Assays:
Med23 [1] = biological target: B3; assay: ChIP-western: IP of crosslinked, sheared murine ES cell chromatin with anti-Smc1a, western blot for Med23
Description: (§1) FIG. 3 Mediator and cohesin interact. a, Mediator (Med23) is detected by western blot (WB) when crosslinked, sheared chromatin is subjected to immunoprecipitation with antibodies against mediator (Med1, Med12) or cohesin (Smc1a, Smc3). WCE, whole-cell extract. b, Cohesin (Smc1a, Smc3) and mediator (Med23) are detected by western blot after immunoprecipitation of uncrosslinked ES cell nuclear extracts (NE) with a Nipb1 antibody. c, Cohesin (Smc3) and Nipb1 co-purify with mediator. The input fractions and immunoprecipitated eluate (IP Eluate) were examined by western blot and silver staining. Molecular weight (MW) markers (kDa) are shown.
(§2) For ChIP-Western, same conditions as for ChIP-Seq were used. For co-immunoprecipitation, murine ES cells were harvested in cold PBS and extracted for 30 min at 4° C. in TNEN250 (50 mM Tris pH 7.5, 5 mM EDTA, 250 mM NaCl, 0.1% NP-40) with protease inhibitors. After centrifugation, supernatant was mixed to 2 volumes of TNENG (50 mM Tris pH 7.5, 5 mM EDTA, 100 mM NaCl, 0.1% NP-40, 10% glycerol).

Med23 [2] = biological target: B3; assay: ChIP-western: IP of crosslinked, sheared murine ES cell chromatin with anti-Smc3, western blot for Med23
Description: as §1, §2

Med12 = biological target: T1, Med12 (mouse (murine ES cells), UniProt A2AGH6 1-2190); assay: ChIP-western: IP of crosslinked, sheared murine ES cell chromatin with anti-Med12, western blot for Med23
T1 construct: Endogenous protein immunoprecipitated from crosslinked murine ES cell chromatin; also called mediator subunit Med12
Description: as §1, §2

Med1 = biological target: T2, Med1 (mouse (murine ES cells), UniProt Q925J9 1-1575); assay: ChIP-western: IP of crosslinked, sheared murine ES cell chromatin with anti-Med1, western blot for Med23
T2 construct: Endogenous protein immunoprecipitated from crosslinked murine ES cell chromatin; also called CRSP1/TRAP220; mediator subunit Med1
Description: as §1, §2

T1 sequence (A2AGH6 whole entry): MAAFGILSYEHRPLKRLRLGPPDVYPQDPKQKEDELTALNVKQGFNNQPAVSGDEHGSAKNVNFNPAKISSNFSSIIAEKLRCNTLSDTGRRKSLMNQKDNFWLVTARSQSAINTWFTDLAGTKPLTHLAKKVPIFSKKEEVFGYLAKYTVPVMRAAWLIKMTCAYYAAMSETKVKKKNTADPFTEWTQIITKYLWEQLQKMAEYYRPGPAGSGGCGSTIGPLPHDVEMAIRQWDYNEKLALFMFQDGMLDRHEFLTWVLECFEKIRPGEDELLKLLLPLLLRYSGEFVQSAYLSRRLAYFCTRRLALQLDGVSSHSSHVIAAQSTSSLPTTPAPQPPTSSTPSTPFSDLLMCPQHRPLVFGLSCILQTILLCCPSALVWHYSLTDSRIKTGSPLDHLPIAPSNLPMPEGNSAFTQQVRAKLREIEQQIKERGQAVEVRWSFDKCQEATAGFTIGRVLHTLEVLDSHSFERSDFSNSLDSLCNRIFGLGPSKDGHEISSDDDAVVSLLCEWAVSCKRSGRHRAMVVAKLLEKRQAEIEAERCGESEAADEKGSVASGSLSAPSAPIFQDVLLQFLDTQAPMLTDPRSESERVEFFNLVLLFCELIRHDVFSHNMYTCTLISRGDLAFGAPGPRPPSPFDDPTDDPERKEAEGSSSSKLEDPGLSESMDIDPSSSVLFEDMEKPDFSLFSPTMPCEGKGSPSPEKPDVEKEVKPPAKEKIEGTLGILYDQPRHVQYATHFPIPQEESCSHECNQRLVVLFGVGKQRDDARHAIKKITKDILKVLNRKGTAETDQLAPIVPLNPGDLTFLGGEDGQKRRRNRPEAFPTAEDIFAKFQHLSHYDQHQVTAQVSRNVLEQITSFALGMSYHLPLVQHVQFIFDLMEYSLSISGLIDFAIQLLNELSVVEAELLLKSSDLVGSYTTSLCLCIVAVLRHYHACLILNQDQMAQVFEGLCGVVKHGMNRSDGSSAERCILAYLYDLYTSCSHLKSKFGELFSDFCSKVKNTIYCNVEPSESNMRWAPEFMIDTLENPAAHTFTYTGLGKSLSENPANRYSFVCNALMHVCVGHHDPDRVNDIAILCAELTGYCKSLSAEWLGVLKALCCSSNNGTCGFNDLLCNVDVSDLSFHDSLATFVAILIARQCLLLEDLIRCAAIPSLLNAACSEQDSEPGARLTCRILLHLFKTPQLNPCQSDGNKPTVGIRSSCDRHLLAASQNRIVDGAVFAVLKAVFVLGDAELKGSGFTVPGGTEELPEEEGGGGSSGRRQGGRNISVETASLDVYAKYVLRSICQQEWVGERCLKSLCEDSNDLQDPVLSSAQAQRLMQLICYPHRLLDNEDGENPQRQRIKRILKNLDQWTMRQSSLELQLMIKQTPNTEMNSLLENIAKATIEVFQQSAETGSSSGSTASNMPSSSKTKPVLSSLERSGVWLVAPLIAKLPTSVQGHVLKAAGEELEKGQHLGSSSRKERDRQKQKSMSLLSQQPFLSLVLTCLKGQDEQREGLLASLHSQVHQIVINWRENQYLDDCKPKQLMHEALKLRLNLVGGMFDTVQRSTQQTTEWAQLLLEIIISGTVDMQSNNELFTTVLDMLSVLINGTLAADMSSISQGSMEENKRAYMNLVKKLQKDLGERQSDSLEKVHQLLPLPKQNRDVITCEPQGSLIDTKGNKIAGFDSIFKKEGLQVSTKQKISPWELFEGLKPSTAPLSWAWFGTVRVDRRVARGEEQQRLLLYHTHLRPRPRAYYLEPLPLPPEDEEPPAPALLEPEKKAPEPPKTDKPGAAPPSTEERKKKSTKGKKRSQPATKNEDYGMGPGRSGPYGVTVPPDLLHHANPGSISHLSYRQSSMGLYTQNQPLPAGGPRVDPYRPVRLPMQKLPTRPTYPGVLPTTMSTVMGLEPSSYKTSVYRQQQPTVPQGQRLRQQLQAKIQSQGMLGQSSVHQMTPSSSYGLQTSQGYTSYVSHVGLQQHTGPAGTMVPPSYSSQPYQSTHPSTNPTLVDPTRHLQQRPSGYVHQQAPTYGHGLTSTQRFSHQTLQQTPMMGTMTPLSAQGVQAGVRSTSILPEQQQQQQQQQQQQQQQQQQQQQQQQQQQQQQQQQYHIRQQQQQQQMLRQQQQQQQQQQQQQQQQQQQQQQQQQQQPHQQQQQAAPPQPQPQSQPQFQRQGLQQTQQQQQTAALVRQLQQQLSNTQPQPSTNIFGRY
T2 sequence (Q925J9 whole entry): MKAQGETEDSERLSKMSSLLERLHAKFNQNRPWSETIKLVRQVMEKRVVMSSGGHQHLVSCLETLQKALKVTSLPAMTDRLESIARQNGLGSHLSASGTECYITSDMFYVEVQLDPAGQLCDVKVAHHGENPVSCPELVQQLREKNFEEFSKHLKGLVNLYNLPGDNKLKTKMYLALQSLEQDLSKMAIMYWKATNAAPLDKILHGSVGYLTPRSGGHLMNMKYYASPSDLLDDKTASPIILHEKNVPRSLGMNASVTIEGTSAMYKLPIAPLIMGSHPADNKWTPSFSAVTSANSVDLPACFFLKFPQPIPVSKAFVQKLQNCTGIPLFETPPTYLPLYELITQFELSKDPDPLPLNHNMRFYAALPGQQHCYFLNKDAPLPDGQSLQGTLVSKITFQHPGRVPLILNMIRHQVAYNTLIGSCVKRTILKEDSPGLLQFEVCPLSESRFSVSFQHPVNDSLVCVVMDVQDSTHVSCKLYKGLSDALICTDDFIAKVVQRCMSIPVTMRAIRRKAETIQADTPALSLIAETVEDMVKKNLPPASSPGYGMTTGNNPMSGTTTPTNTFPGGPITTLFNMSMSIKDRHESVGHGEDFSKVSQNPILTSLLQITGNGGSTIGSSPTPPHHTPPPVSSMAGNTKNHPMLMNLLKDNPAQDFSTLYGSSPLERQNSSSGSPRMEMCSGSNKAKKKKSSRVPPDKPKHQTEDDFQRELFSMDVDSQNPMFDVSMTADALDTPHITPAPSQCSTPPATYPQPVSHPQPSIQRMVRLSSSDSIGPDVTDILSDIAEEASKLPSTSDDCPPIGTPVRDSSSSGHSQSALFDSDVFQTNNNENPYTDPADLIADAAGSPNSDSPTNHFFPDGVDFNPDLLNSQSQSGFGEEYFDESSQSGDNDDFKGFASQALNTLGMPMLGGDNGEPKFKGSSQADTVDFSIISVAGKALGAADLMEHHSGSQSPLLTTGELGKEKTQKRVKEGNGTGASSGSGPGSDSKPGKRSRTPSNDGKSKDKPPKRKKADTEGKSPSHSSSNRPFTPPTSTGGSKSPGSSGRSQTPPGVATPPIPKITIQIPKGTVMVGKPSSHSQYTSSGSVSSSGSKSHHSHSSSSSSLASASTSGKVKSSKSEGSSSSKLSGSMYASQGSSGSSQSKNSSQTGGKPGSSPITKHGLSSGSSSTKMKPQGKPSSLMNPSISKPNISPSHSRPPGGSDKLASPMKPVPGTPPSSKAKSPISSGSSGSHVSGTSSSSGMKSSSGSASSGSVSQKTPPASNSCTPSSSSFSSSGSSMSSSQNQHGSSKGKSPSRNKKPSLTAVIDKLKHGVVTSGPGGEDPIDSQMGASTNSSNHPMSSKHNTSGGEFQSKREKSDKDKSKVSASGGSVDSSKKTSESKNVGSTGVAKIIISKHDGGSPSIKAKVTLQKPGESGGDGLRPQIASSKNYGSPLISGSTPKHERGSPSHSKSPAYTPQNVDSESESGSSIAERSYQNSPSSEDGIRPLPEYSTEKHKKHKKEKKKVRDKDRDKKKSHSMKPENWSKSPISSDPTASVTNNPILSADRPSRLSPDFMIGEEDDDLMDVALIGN

B1: Smc1a (other, mouse (murine ES cells), UniProt Q9CU62 1-1233, looked up)
chain: MGFLKLIEIENFKSYKGRQIIGPFQRFTAIIGPNGSGKSNLMDAISFVLGEKTSNLRVKTLRDLIHGAPVGKPAANRAFVSMVYSEEGAEDRTFARVIVGGSSEYKINNKVVQLHEYSEELEKLGILIKARNFLVFQGAVESIAMKNPKERTALFEEISRSGELAQEYDKRKKEMVKAEEDTQFNYHRKKNIAAERKEAKQEKEEADRYQRLKDEVVRAQVQLQLFKLYHNEVEIEKLNKELASKNKEIEKDKKRMDKVEDELKEKKKELGKMMREQQQIEKEIKEKDSELNQKRPQYIKAKENTSHKIKKLEAAKKSLQNAQKHYKKRKGDMDELEKEMLSVEKARQEFEERMEEESQSQGRDLTLEENQVKKYHRLKEEASKRAATLAQELEKFNRDQKADQDRLDLEERKKVETEAKIKQKLREIEENQKRIEKLEEYITTSKQSLEEQKKLEGELTEEVEMAKRRIDEINKELNQVMEQLGDARIDRQESSRQQRKAEIMESIKRLYPGSVYGRLIDLCQPTQKKYQIAVTKVLGKNMDAIIVDSEKTGRDCIQYIKEQRGEPETFLPLDYLEVKPTDEKLRELKGAKLVIDVIRYEPPHIKKALQYACGNALVCDNVEDARRIAFGGHQRHKTVALDGTLFQKSGVISGGASDLKAKARRWDEKAVDKLKEKKERLTEELKEQMKAKRKEAELRQVQSQAHGLQMRLKYSQSDLEQTKTRHLALNLQEKSKLESELANFGPRINDIKRIIQSREREMKDLKEKMNQVEDEVFEEFCREIGVRNIREFEEEKVKRQNEIAKKRLEFENQKTRLGIQLDFEKNQLKEDQDKVHMWEQTVKKDENEIEKLKKEEQRHMKIIDETMAQLQDLKNQHLAKKSEVNDKNHEMEEIRKKLGGANKEMTHLQKEVTAIETKLEQKRSDRHNLLQACKMQDIKLPLSKGTMDDISQEEGSSQGEESVSGSQRTSSIYAREALIEIDYGDLCEDLKDAQAEEEIKQEMNTLQQKLNEQQSVLQRIAAPNMKAMEKLESVRDKFQETSDEFEAARKRAKKAKQAFEQIKKERFDRFNACFESVATNIDEIYKALSRNSSAQAFLGPENPEEPYLDGINYNCVAPGKRFRPMDNLSGGEKTVAALALLFAIHSYKPAPFFVLDEIDAALDNTNIGKVANYIKEQSTCNFQAIVISLKEEFYTKAESLIGVYPEQGDCVISKVLTFDLTKYPDANPNPNEQ
notes: Endogenous protein of murine ES cells; also called cohesin core complex protein Smc1a
Med23 [1]
  binding result: binds

B2: Smc3 (other, mouse (murine ES cells), UniProt Q9CW03 1-1217, looked up)
chain: MYIKQVIIQGFRSYRDQTIVDPFSSKHNVIVGRNGSGKSNFFYAIQFVLSDEFSHLRPEQRLALLHEGTGPRVISAFVEIIFDNSDNRLPIDKEEVSLRRVIGAKKDQYFLDKKMVTKNDVMNLLESAGFSRSNPYYIVKQGKINQMATAPDSQRLKLLREVAGTRVYDERKEESISLMKETEGKREKINELLKYIEERLHTLEEEKEELAQYQKWDKMRRALEYTIYNQELNETRAKLDELSAKRETSGEKSRQLRDAQQDARDKMEDIERQVRELKTKISAMKEEKEQLSAERQEQIKQRTKLELKAKDLQDELAGNSEQRKRLLKERQKLLEKIEEKQKELAETEPKFNSVKEKEERGIARLAQATQERTDLYAKQGRGSQFTSKEERDKWIKKELKSLDQAINDKKRQIAAIHKDLEDTEANKEKNLEQYNKLDQDLNEVKARVEELDRKYYEVKNKKDELQSERNYLWREENAEQQALAAKREDLEKKQQLLRAATGKAILNGIDSINKVLEHFRRKGINQHVQNGYHGIVMNNFECEPAFYTCVEVTAGNRLFYHIVDSDEVSTKILMEFNKMNLPGEVTFLPLNKLDVRDTAYPETNDAIPMISKLRYNPRFDKAFKHVFGKTLICRSMEVSTQLARAFTMDCITLEGDQVSHRGALTGGYYDTRKSRLELQKDVRKAEEELGELEAKLNENLRRNIERINNEIDQLMNQMQQIETQQRKFKASRDSILSEMKMLKEKRQQSEKTFMPKQRSLQSLEASLHAMESTRESLKAELGTDLLSQLSLEDQKRVDALNDEIRQLQQENRQLLNERIKLEGIITRVETYLNENLRKRLDQVEQELNELRETEGGTVLTATTSELEAINKRVKDTMARSEDLDNSIDKTEAGIKELQKSMERWKNMEKEHMDAINHDTKELEKMTNRQGMLLKKKEECMKKIRELGSLPQEAFEKYQTLSLKQLFRKLEQCNTELKKYSHVNKKALDQFVNFSEQKEKLIKRQEELDRGYKSIMELMNVLELRKYEAIQLTFKQVSKNFSEVFQKLVPGGKATLVMKKGDVEGSQSQDEGEGSGESERGSGSQSSVPSVDQFTGVGIRVSFTGKQGEMREMQQLSGGQKSLVALALIFAIQKCDPAPFYLFDEIDQALDAQHRKAVSDMIMELAVHAQFITTTFRPELLESADKFYGVKFRNKVSHIDVITAEMAKDFVEDDTTHG
notes: Endogenous protein of murine ES cells; also called cohesin core complex protein Smc3
Med23 [2]
  binding result: binds

## B3
Med12
  binding result: binds
Med1
  binding result: binds
